Where “and” joins values, the source holds several entries; their conditions need not be identical. Equal values may be shown once.
Assays:
human CD73 on cells [1] = target: T1, human CD73 on cells (human, UniProt P21589 27-549); test: flow cytometry, FITC-mAb, human B cells, donor D316
T1 construct: Endogenous protein; also called endogenous CD73 on Calu6, NCI-H292, SK-MEL-24, human B and T cells
T1 sequence: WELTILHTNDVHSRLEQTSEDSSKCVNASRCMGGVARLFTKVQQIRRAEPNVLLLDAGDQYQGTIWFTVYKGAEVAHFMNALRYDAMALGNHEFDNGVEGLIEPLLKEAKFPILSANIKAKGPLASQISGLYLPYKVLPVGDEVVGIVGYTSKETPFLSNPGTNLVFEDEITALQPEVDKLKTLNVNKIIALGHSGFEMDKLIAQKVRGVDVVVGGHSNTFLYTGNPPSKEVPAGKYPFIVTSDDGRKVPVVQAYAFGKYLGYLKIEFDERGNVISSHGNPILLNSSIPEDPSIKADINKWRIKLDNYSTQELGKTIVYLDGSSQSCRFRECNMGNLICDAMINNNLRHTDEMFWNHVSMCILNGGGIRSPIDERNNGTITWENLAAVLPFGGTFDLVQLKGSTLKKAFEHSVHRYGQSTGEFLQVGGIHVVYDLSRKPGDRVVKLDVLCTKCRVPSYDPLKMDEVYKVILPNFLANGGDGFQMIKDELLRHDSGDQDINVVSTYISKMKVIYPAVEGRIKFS
Description: (§1) Binding of CD73.4 antibody to human B and T cells was also determined. Peripheral blood mononuclear cells (PBMC) were isolated with Lympholyte-H cell separation gradient media. […] Cells from both donors were pooled for the unstained and FMO (Fluorescence minus one) control samples.

[2] = target: T2, cynomolgus CD73 on transfected CHO cells (cynomolgus, UniProt P21589 27-549 (human entry)); test: flow cytometry, CHO-cynoCD73 cells
T2 construct: also called CHO-cynoCD73; CHO-Cynomolgus CD73 transfectants
T2 chain: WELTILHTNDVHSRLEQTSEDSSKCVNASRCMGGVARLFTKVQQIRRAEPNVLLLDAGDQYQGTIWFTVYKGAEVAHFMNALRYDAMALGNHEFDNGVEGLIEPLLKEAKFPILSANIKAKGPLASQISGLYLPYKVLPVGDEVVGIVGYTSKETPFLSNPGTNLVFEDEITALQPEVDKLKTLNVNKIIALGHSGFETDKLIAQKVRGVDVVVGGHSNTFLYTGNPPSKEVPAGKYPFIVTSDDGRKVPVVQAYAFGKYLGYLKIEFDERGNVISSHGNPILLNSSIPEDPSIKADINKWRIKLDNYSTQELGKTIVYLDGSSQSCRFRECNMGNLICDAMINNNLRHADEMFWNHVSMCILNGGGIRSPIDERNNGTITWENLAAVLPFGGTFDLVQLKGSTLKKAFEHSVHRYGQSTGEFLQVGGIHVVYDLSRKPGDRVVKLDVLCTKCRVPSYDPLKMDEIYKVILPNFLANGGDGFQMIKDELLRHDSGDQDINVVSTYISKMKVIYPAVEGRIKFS
Description: (§2) Titration binding curves were produced with CD73 antibodies on Calu6 (CD73 endogenous expressors; human pulmonary adenocarcinoma cell line), DMS114 (CD73 negative; human small cell lung cancer cell line), CHO-cynoCD73 (cynoCD73-transfected) and CHO-K1 (cynoCD73 negative), cells using Alexa Fluor® 647 Goat Anti-Human IgG (H+L) as a secondary antibody, Invitrogen Cat#A-21445, using the following method: 100000 cells were plated in 100 uL PBS+2% FBS per well and blocked for 20 min. Using a U-bottom 96-deep well plate, volumes of antibody and PBS+2% FBS were combined as dictated by Table 12 below.
(§3) An 8-point serial dilution was performed by diluting a sixth of the volume (90 uL) into […], PBS+2% FBS. The cell plate was spun down for 5 minutes at 1500 rpm. 100 uL of diluted antibody was added per well of the plate. 100 uL PBS+2% FBS were added to all other wells. […] The plates were spun down at 1500 rpm for 5 min and washed in 200 uL PBS+2% FBS per well. The plates were washed again, resuspended in 200 uL 2% FBS in PBS per well and the samples were run.

human CD73 on cells [3] = target: T1, human CD73 on cells; test: flow cytometry, FITC-mAb, human B cells, donor D329
Description: as §1

human CD73 on cells [4] = target: T1, human CD73 on cells; test: cell-based or functional assay
[5] = target: T3, rhCD73 bound to his-tag magnet beads (human, UniProt P21589 27-547, limits assumed); test: cell-based or functional assay
T3 sequence: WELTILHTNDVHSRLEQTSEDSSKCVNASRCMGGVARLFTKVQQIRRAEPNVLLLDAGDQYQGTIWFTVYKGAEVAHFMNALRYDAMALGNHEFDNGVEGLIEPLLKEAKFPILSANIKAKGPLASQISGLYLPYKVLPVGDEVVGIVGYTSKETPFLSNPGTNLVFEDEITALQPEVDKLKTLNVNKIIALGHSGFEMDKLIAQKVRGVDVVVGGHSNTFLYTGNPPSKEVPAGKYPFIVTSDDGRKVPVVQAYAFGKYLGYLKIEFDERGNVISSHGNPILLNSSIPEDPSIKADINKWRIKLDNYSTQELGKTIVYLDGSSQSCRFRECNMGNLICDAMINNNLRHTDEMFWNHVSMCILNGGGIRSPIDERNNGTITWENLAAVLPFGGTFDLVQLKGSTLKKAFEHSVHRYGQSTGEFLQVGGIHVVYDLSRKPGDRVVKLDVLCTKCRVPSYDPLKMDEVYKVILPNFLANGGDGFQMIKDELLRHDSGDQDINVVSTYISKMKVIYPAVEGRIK

human CD73 on cells [6] = target: T1, human CD73 on cells; test: flow cytometry, FITC-mAb, human T cells, donor D316
Description: as §1

human CD73 on cells [7] = target: T1, human CD73 on cells; test: flow cytometry, Calu6 cells
Description: as §2, §3

[8] = target: T4, cyno CD73, Sino Biological Inc Cat#90192-C08H, bound to his-tag magnet beads (cynomolgus, UniProt P21589 27-547 (human entry)); test: cell-based or functional assay
T4 chain: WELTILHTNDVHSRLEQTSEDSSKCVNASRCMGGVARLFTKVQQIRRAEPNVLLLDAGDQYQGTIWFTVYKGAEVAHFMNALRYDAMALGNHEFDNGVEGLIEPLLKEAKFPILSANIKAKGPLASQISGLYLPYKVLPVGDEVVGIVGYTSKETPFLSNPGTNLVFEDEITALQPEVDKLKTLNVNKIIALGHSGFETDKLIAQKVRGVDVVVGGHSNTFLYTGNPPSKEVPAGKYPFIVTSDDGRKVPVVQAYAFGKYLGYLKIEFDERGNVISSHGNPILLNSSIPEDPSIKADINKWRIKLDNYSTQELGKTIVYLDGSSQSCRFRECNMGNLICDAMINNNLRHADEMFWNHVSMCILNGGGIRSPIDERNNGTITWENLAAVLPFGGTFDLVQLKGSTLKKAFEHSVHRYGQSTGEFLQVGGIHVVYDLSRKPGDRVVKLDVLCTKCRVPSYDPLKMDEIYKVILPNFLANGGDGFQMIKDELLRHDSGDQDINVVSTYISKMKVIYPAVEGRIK

human CD73 on cells [9] = target: T1, human CD73 on cells; test: binding titration on Calu6 cells, average of 2-6 experiments
human CD73 on cells [10] = target: T1, human CD73 on cells; test: cell-based or functional assay; remark: listed apart in the source
human CD73 on cells [11] = target: T1, human CD73 on cells; test: flow cytometry, FITC-mAb, human T cells, donor D329
Description: as §1

human CD73 on cells [12] = target: T1, human CD73 on cells; test: cell-based or functional assay; remark: listed apart in the source
[13] = target: T5, N-hCD73-his (N-terminal domain of human CD73, residues 26-336, His tag) (human, UniProt P21589 26-336); test: SPR, mAb captured on protein A
T5 sequence: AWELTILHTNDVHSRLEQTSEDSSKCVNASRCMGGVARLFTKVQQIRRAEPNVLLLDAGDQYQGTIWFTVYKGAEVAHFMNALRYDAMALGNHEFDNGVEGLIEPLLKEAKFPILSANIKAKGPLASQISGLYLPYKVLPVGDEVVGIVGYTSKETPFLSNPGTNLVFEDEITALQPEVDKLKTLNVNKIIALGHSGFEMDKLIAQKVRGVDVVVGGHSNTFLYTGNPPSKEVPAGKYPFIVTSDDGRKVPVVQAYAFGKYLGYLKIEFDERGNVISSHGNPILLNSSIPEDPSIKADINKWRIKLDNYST
Description: (§4) For these experiments, protein A (Pierce) was immobilized to a density of 3000-4000 RU on flow cells 1-4 of a CM5 sensor chip (GE Healthcare) using standard ethyl(dimethylaminopropyl) carbodiimide (EDC)/N-hydroxysuccinimide […] chemistry, with ethanolamine blocking, in a running buffer of 0.01 M HEPES pH 7.4, 0.15 M NaCl, 3 mM EDTA, 0.005% v/v tween 20. […] The running buffer for the kinetic experiments was 10 mM sodium phosphate, 130 mM sodium chloride, 0.05% tween 20, pH 7.1. The surfaces were regenerated after each cycle using two 30 s pulses of 10 mM glycine pH 1.5 at a flow rate of 30 μl/min. Sensogram data was double-referenced and then fitted to a 1:1 Langmuir model using Biacore T100 evaluation software v2.0.4, to determine the association rate constant (ka), the dissociation rate constant (kd), and the equilibrium dissociation constant (KD).

[14] = target: T5, N-hCD73-his (N-terminal domain of human …); test: SPR, comparison of all IgG2 molecules
Description: as §4

human CD73 on cells [15] = target: T1, human CD73 on cells; test: cell-based or functional assay; remark: listed apart in the source

B1: CD73.4-IgG2-C219S (antibody)
heavy: QVQLVESGGGVVQPGRSLRLSCAASGFTFSNYGMHWVRQAPGKGLEWVAVILYDGSNKYYPDSVKGRFTISRDNSKNTLYLQMNSLRAEDTAVYYCARGGSSWYPDSFDIWGQGTMVTVSSASTKGPSVFPLAPCSRSTSESTAALGCLVKDYFPEPVTVSWNSGALTSGVHTFPAVLQSSGLYSLSSVVTVPSSNFGTQTYTCNVDHKPSNTKVDKTVERKSCVECPPCPAPPVAGPSVFLFPPKPKDTLMISRTPEVTCVVVDVSHEDPEVQFNWYVDGVEVHNAKTKPREEQFNSTFRVVSVLTVVHQDWLNGKEYKCKVSNKGLPAPIEKTISKTKGQPREPQVYTLPPSREEMTKNQVSLTCLVKGFYPSDIAVEWESNGQPENNYKTTPPMLDSDGSFFLYSKLTVDKSRWQQGNVFSCSVMHEALHNHYTQKSLSLSPG
light: not shown
notes: also called CD73.4-IgG2CS; CD73.4-IgG2.3
IC50 (human CD73 on cells [1]): 159 pM | EC50 [2]: 340 pM | IC50 (human CD73 on cells [3]): 77.7 pM | EC50 Calu6 inhibition (human CD73 on cells [4]): 340 pM | EC50 (nM), inhibition of bead-bound human CD73 enzymatic activity [5]: 2.72 nM | IC50 (human CD73 on cells [6]): 180 pM | EC50 (human CD73 on cells [7]): 490 pM | EC50 (nM), enzymatic inhibition of cyno CD73 (bead-bound) [8]: 3.66 nM | EC50 (human CD73 on cells [9]): 490 pM | CD73 Inhibition EC50 (nM), cAMP assay, Calu6 (human CD73 on cells [10]): 1.56 nM and 1.78 nM | IC50 (human CD73 on cells [11]): 135 pM

B2: 11F11 (antibody, human IgG2, kappa, V domains shown)
VH: QVQLVESGGGVVQPGRSLRLSCATSGFTFSNYGMHWVRQAPGKGLEWVAVILYDGSNKYYPDSVKGRFTISRDNSKNTLYLQMNSLRAEDTAVYYCARGGSSWYPDSFDIWGQGTMVTVSS
VL: DIQMTQSPSSLSASVGDRVTITCRASQGISSWLAWYQQKPEKAPKSLIYAASSLQSGVPSRFSGSGSGTDFTLTISSLQPEDFATYYCQQYNSYPLTFGGGTKVEIKR
notes: Human IgG2; also called 11F11-2
EC50 [2]: 580 pM | Ymax, cAMP HTRF assay (percent of 100 nM 11F11 control) (human CD73 on cells [12]): 76% | EC50 SKMEL24 inhibition (human CD73 on cells [4]): 3150 pM | EC50 (nM), inhibition of bead-bound human CD73 enzymatic activity [5]: 3.98 nM | Kd [13]: 560 pM and 1600 pM | Kd [14]: 1100 pM | EC50 (nM), high-content internalization assay, Calu6, 2 h (human CD73 on cells [15]): 0.58 nM | Ymax, high-content internalization assay (percent of 100 nM 11F11) (human CD73 on cells [15]): 98%

From patent publication US20190284293A1 (Bristol-Myers Squibb, published 2019)
